Each block holds one binder with its values, some of them ahead of it.
Experiments:
[1] = biological target: T1, checkpoint kinase 2, transcript variant 3 (human); test: protein array
T1 construct: on protein array; also called CHEK2
T1 chain: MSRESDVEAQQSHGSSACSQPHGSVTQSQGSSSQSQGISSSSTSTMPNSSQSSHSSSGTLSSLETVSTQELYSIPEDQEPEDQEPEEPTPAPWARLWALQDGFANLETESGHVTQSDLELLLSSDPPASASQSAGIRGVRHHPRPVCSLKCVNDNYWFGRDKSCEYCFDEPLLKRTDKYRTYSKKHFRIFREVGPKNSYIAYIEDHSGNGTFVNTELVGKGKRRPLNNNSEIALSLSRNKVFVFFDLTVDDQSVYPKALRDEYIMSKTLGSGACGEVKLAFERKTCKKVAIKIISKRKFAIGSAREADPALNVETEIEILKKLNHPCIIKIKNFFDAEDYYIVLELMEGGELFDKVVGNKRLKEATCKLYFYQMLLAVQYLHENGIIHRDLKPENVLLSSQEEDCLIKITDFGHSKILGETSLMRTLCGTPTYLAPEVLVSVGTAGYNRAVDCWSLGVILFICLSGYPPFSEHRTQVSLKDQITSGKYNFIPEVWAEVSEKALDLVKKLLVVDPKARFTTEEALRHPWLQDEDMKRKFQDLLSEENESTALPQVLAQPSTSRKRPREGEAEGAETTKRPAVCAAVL

[2] = biological target: T2, ankyrin repeat domain 53, transcript variant 2 (human); test: protein array, with experimental replicate
T2 construct: on protein array; also called ANKRD53
T2 chain: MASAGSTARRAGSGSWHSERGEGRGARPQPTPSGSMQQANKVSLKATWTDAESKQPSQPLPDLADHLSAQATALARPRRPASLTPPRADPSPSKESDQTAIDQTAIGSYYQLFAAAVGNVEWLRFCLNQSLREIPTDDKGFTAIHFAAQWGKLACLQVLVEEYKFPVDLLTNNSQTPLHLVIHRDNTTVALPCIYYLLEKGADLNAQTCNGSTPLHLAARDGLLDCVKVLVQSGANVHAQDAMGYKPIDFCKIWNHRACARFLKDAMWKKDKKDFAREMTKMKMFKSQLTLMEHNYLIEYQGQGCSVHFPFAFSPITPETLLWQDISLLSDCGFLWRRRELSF

binding result [1]: binds
B1: TKIC10013 (antibody, V domains shown)
VH: EVQLVESGGGLVQPGGSLRLSCAASGFTFNNYWMHWVRQAPGKGLVWVSRISSDGSTTASADSVKGRFTISRDNAKNTLFLQMNSLRAEDTAVYYCAREGAPDDYGDSGTAFDIWGQGTTVTVSS
VL: DIQLTQSPSFLSASVGDRVTITCRASQDISSFLAWYQQKPGKAPDLLIYAASTLQSGVPSRFSGSGSGTEFTLTISSLQPEDFAAYYCQHLTSFPYTFGQGTKLEIKR
notes: VH/VL tied via antigen in summary, not by name in this stretch

binding result [2]: binds
B2: TKIC10019 (antibody, V domains shown)
VH: QLQLQESGPGLVKPSETLSLTCTVSDVSIISSFYYWGWIRQPPGKGLEWIGSVYYSGSTSYNPSLKSRVTISADTSKAHFSLNLRSVTAADTAVYYCVSRGPLGGAAAGPDYWGQGALVIVSS
VL: VSSELTQDPAVSVALGQTVRITCQGDSLRSYYATWYQQKPGQAPLLVIFDKDKRPSGIPDRFSGSSSGNTASLTITGAQPEDEAVYYCNSRDSSAHDHLLFGGGTTLTVLG
notes: as for B1

— patent publication US20220204643A1 (published 2022)
